Assay results taken from a protein production outcome set (Wang et al. 2014).

Assay: label from the status in PepcDB records

Sequence | protein production
MASLEVSRSPRRSRRELEVRSPRQNKYSVLLPTYNERENLPLIVWLLVKSFSESGINYEIIIIDDGSPDGTRDVAEQLEKIYGSDRILLRPREKKLGLGTAYIHGMKHATGNYIIIMDADLSHHPKFIPEFIRKQKEGNFDIVSGTRYKGNGGVYGWDLKRKIISRGANFLTQILLRPGASDLTGSFRLYRKEVLEKLIEKCVSKGYVFQMEMIVRARQLNYTIGEVPISFVDRVYGESKLGGNEIVSFLKGLLTLFATT | failed
MASLRVACVIPTYNGRKDLERLLDSLATQTASFDTLIVDSSSSDGTLELAQARCANVLRIDSKDFNHGGTRQMMVDVHPDYDVYVYMTQDAYVEDIDAIANILLPFADPKVGAVCGRQLPHKNANLLAQHARLFNYPPTSQIKTLADAGTLGIKTPFMSNSFAAYRGEALRAIGGFPRHVILSEDMYVTAKMLIDGWKVAYEGSAVCRHSHNYSLREEFCRYFDIGVFQSREAWIYETFGGIGGEGMRYVKSELKFLGPRRLLWWPMSFVRNALKLLAYKLSKQEKRLPRGLKKKLGMYKRYWDSPYA | failed
MASLVAYDDSDPESEADPARSGDAAGQMSDVSGISRPEVEFASSTGVTKEGAQHTGNSPYEDPGKQRLPLARLWRSDPGSCPSQRLQWPSKEPDSTFPTSEPPGPSLWMNRAPVGHVPLAAACFKPLKPAWDAFTPSHTHSKLESTAGNASSSQRKRGEACVLPYIPKRLRQLQVLNPEATGGRDVEPPGSPAGCAPAPLCVAPTVSEFIQPYLNSQYRETTVPKKVLFHLRGHRGPVNSIQWCPVFSKSHMLLSASMDKTFKVWNAVDSGHCLQTYSVHSEAVRAARWSPCGRRILSGGFDFALHLTDLETGTQVFSGHSDFRVTTLKFHPKDHNVFLCGGFSSEIKAWDMRTGKVVKGYKATIQQTLDILFLQEGSEFLSSTDASTRDSADRTIIAWDFRTAAKISNQIFHERYTCPSLALHPREPVFLAQTNGNYLALFSSVWPYRMSRRRRYEGHKVEGYAVGCECSPCGDLLVTGSADGRVLMFSFRTASRACTLQGHTQACLGTTYHPVLPSVLGTCSWGGDIKIWH | failed
MASPAAGDVLIVGSGLVGRSWAMLFASGGFRVKLYDIEPRQITGALENIRKEMKSLQQSGSLKGSLSAEEQLSLISSCTNLAEAVEGVVHIQECVPENLDLKRKIFAQLDSIVDDRVVLSSSSSCLLPSKLFTGLAHVKQCIVAHPVNPPYYIPLVELVPHPETSPATVDRTHALMRKIGQSPVRVLKEIDGFVLNRLQYAIISEAWRLVEEGIVSPSDLDLVMSDGLGMRYAFIGPLETMHLNAEGMLSYSDRYSEGMKRVLKSFGSIPEFSGATVEKVNQAMCKKGPADPEHLAARREWRDECLKRELAKLKRQMQPQ | not failed
MASPLYPSVLNNPLSSIVVTRDEFNAFHTIDRTLFSRLVFNLNRDVDQSFLAMCFLLFLEQSSYARDIIAYLVSLPNAFVDAVANEIGVCINLLYNVEFASTFFAADNDDNSMIPLLLRITGGKFTLRLINQQRKNFCAGVTKSWTDVCTRAFSDLCETAHRINREKQLALEREKFIEDMKKLRLSLQQEKSNRLSVQQVKIASPPPPRPHPPVEDETEKALREKETMEVKEKEGVLAADDRTVFLTFSKGYPISEAEVRVYFTRRFGEVIEAVEMQEVEANEQPLFAKMVMKLQCASMMDEIVSARFRNKFTIDGKHVWARKYVRKNPYPASSSTHF | failed
MASREVSITRISPLATFRVALAMSIIGLVAWIICVTVLYFGLNVAGVWQNFNDVIGGVGAEQTITFGLVLSISALLGAIGAITVAVLAPLCAIIYNSIVDLFGGLQIQLQEEVD | failed
MASSLITSAVIVVVLSLVLGSVEQVSGLRHVPKSPKTTDVKHPDFLVTIEPKPTILIPGVGRFLLPPKCKKPFYPYNPVTGAPLTGGGIPSYNGGQGAGPHTQLPGGDDTLVPNPGFEAPTPTIGAGTGSNGQVPPVPLP | failed
MASSPRPTEQTKQFFQQWQTYQQLVDHNYMAHRQIHQAVGALIQQQFDRPFDFLDLGCGDAQAIAKTLTGSKINSYTGVDLSPNALALAQKNLDPFRQVELRETDFLTYLGEANQTAPASFDLIHVGFSLHHLLPEEKEQFFAHCFSLLRPGGCLVIYDVFRQPEQNRQQYIEAYLAKAESQWTALAPDQLQAIAAHIKECDFPELVATMAEIGQKVGFIPPQVLFTEPRGFHHCFAFAISQSGKALAQDGV | failed
MASTYYELLGVSKYASEADIKKAFKDLAKKYHPDKHPGEAFYEEHFKKINEAYQILSDKQARQNYDFRLQYGQHAQQSRPAQNQQRAYQRPTATYQQPKYRRPKPAASGTSAYQKKLNTYYISIAIGAVVFIFACYWFYSFMNTYSSKKYFNEGLKAESRGNDMQALSFYFSALEINLKNPEVNEKIGDLYSKFATNSSYDLFYYDLELQKNFQDPDFDATSIELLKKTRNVDSLAALYYKRSFENFEMPVDKRRVGLKSIKACLKTGDYKQAADNLYKVSFLPDYKRDDSVLYYRGDVIFQTRFYDQARDNYRKFLALHPTSAEASVKIAVCHYNEHNEDYALAQLAKTIKRFPANGEAYYFLGQIHLRNNDTLKACSNFYKADSLHVLAAKPSLYKYCRN | failed
MASWPYCNHKRGLNGYGVFFSIFFGSGAYNAPVRIAVLADIHGNADALRAVLKDAAEQGAERLIVNGDVVNRGPDSVQVMEELLARDDTSFVLGNHDDLLRLWHTRSDKLPQDWYDDPFWGATAWSTEQLHAAGLLDVPGDWPLTARLSVPGLPDVLLAHGTPDDYRRGLSERTDPALVRRIADESGAGVLVGSHIHRQADALVGGVRVLNTGAVGSPADGDPRAQYLLLTATPQGWQTELRRVPYDRSGVLQRFETSGLLDTGLSARIFRDELVTARSLYTPYWEWTETGGCPRDTASWEQFAQDWT | failed
MASYVFIRVSKIRKGYFPVLLAIGFAITFAEGFILFLVNFGAIPTNGPTIQLVPQIIMQNPNPLIRFYGTLILLCFLNTIVLSIFYATIAKLLPKFSG | failed
MATAENTELIDRFEEFYRNYYRNEIGELAQKYPNDQKSLYIDWDDLYRFDPDLADDYRTKPEQIQEYAEEALRLYDLPVDVSLGQAHVRVRNLPESEDIRDLRHEHHGNLVAVRGIIRKATDVRPKVIEAAFECQRCGTLTRIPQTAGDFQEPHDCQGCERQGPFRLNTDQSQFIDAQKLRVQESPEGLRGGETPQSIDINIEDDITGHVTAGDHVRVTGILKLDQRGNDNEKSPMFDIYMEGVSVEIEDEQFEDMEITDADKTEIVELSSEPDIYDKMVGAIAPSIYGYEKEKLAMMLQLFSGVTKELPDGSRIRGDLHMLLIGDPGTGKCVHGDTRVTLADGHERPIREVVESNLDDPKPVDDGVWDTVDFDVPSLQSDGTVATQNATKVWKRKAPETLYRIRTATGRELDVTPSHPLFVQSDGRFQARKAEELESGTHVAVPRKVSTNACNELDVTFRQSQAHNRIDLDLPPQWTPELARLIGYIVAEGYVEQRPDNTGYVSITNNDREVLDDAKSVLETLNLNVTERSSHEGKTARELLCSAGEFVSFLASLDETLLQSSAERRVPQDIMRASDNVVTGFIRGYIEGEGHVSTSQREITVASMSKPLLEDVRTLLVTQGITAQLQPRNNGSYRLRISGQSFHDYAEQIGFITARKTEACRQFEGTHGNTNLDIVPNLGPELRRIREALGLTQSECGLPRSTYQHYERGRRNPSRDSLESVLDAFETRLAEMNNDTPISDTARSDGGGTGSLRQDLNGLAALVEGDIAWDRIESIEPIEHDEKWVYDLEIEGTHNYLTNGVVSHNSQMLSYIENIAPRSVYTSGKGSSSAGLTAAAVRDDFGDGQQWTLEAGALVLADQGIAAIDELDKMSPEDRSAMHEALEQQRISVSKAGINATLKSRCSLLGAANPKYGRFDQYEPIGEQIDLEPALISRFDLIFTVTDKPDEEKDRNLAEHIIQTNYAGELHTHRTENPTSNFSEEEVGTVTEEVAPTIEPDLLRKYVAYAKRNCFPTMTEEAKSRIEDFYVDLRLKGQDEDAPVPVTARKLEALVRLAEASARIRLSDTVDEADADRAVDIAHYCLKEIGVDPETGEFDADVVETGQSKTQRDRIQNIKGIISDIEDEYDEGAPADVVIERAEEVGIDESKAEHEIDKLKQKGEVYEPRTDHLRTT | failed
MATEISTRGRQRAIGHEEYSLYSSLSEEELLQMAIEQSLADKTRGPTPAEASASSQTNHQPGHFHPWTRSPSSPENPPARAPLGLFQGVMQKYSSNLFKTSQMAAMDPVLKAIKEGDEEALKIMIQDGKNLAEPNKEGWLPLHEAAYYGQLGCLKVLQQAYPGTIDQRTLQEETALYLATCREHLDCLLSLLQAGAEPDISNKSRETPLYKACERKNAEAVRILVRYNADANHRCNRGWTALHESVSRNDLEVMEILVSGGAKVEAKNVYSITPLFVAAQSGQLEALRFLAKHGADINTQASDSASALYEASKNEHEDVVEFLLSQGADANKANKDGLLPLHVASKKGNYRIVQMLLPVTSRTRVRRSGISPLHLAAERNHDAVLEALLAARFDVNAPLAPERARLYEDRRSSALYFAVVNNNVYATELLLLAGADPNRDVISPLLVAIRHGCLRTMQLLLDHGANIDAYIATHPTAFPATIMFAMKCLSLLKFLMDLGCDGEPCFSCLYGNGPHPPAPRPGRFHDAPVDDKAPSVVQFCEFLSAPEVSRWAGPIIDVLLDYVGNVQLCSRLKEHIDSFEDWAVIKEKAEPPRPLAHLCRLRVRKAIGKYRIKLLDTLPLPGRLIRYLKYENTQ | failed
MATFFSLALYAGSFTFILREGGIPFYYLGVFFAIAVILYLIFNSLSREYVGRAGDAIIVPVSILMVAVAFVLVYISQSIPIISVSVALFTVSLIMFYNSTVRNEVSISTNERIFMGGAGLGGFIGLIVAGVFPGKMSVLDSYMAIIMLAVGLAAVFVFFRRPTGRFSIADAFHVFVRPFNSMEKIRTIEKKLLLLAVSLDEIFVWIAIGASFPFVISAGLGSGMSRPAVMFSVAAAIIIGAALVYVFESSNIPATPFFYPVKDLILVAGLLLLSFMYPASYVAGMIFLALLPVAFIGSVRFLKSQFPSSFDFRQITSFFRNPIMVIAPLMGSILWAVSGAMLFLTAMAFAIFALVIGIIVITNPKIFKVSDPYETANN | failed
MATITRTDRLILVPLTVELEDEAHQIYSDSRIWEHRPQARHTNVRVTRDIIKRTNESWGKKDLGPWGVYLRDRPSEFVGVGGVELIDGKVWDLKYRLRPDLWGNGYATEISNAATLATKRIDDSLPLTARVTTNHPASFRILEKLGLTPVWEGRRVGTEDDPNEPDVRIYSDRPLSDEILEMLKQRP | failed
MATKSSDSSHKQSPPSFRKSVEIKATHDQFFVWREFLWGGIAGAFGEGMMHPVDTLKTRLQSQIIMNATQRQKSILQMLRTVWVGDGLKGFYRGIAPGVTGSLATGATYFGFIESTKKWIEESHPSLAGHWAHFIAGAVGDTLGSFIYVPCEVIKQRMQIQGTSSSWSSYISRNSVPVQPRGDMYGYYTGMFQAGCSIWKEQGPKGLYAGYWSTLARDVPFAGLMVVFYEGLKDLTDQGKKKFPQYGVNSSIEGLVLGGLAGGLSAYLTTPLDVVKTRLQVQGSTIKYASYKGWLDAVGQIWRKEGPQGFFRGSVPRVMWYLPASALTFMAVEFLRDNFREKSNNNNNVVSNLSIERKTSSTSVHEG | failed
